{"source": "patent US12123876B2", "about": "“Antibody binding to HEG1 and use of the antibody for detection and treatment of mesothelioma” (Kanagawa Prefectural Hospital Organization, priority 2016, dated 2024)", "molecules": {"B1": {"name": "SKM9-2 antibody: mouse monoclonal IgG1 kappa antibody binding glycosylated HEG1; heavy chain SEQ ID NO: 2, light chain SEQ ID NO: 4 (antibody, listed as Mus musculus)", "heavy": "MGWSSIILFLVATTTGVHSQVQLQQPGAELVRPGASVKLSCKASGFSFTTYWITWVKQRPGQGLEWIGMIHPSDSETRLSQTFKDKATLTVDKSSNTAYMQFSSPTSEDSAVYYCVRDFDVWGAGTTVTVSSAKTTPPSVYPLAPGSAAQTNSMVTLGCLVKGYFPEPVTVTWNSGSLSSGVHTFPAVLQSDLYTLSSSVTVPSSTWPSETVTCNVAHPASSTKVDKKIVPRDCGCKPCICTVPEVSSVFIFPPKPKDVLTITLTPKVTCVVVDISKDDPEVQFSWFVDDVEVHTAQTQPREEQFNSTFRSVSELPIMHQDWLNGKEFKCRVNSAAFPAPIEKTISKTKGRPKAPQVYTIPPPKEQMAKDKVSLTCMITDFFPEDITVEWQWNGQPAENYKNTQPIMDTDGSYFVYSKLNVQKSNWEAGNTFTCSVLHEGLHNHHTEKSLSHSPGK", "light": "MKLPVRLLVLMFWIPASISDVLMTQTPLSLPVSLGDQASISCRSSQNIVHNNGNTYLGWYLQKPGQSPKLLIFKVSNRFSGVPDRFSGSGSGTDFTLKISRVEAEDLGVYYCFQGSHIPRTFGGGTRLEIKRADAAPTVSIFPPSSEQLTSGGASVVCFLNNFYPKDINVKWKIDGSERQNGVLNSWTDQDSKDSTYSMSSTLTLTKDEYERHNSYTCEATHKTSTSPIVKSFNRNEC"}}, "key": {"[1]": {"system": "mesothelioma", "experiment": "Immunohistological staining of mesothelioma tissue sections", "design": "species or system human", "excerpt": "For the detection of mesothelioma according to the present invention, the antibody according to the present invention or an antigen-binding fragment thereof is contacted with a sample. In the case that a sample separated from a living body such as cells, a tissue, or a tissue section is used, antibody reaction can be detected by using a method well known to those skilled in the art (e.g., an immunohistological staining method). If antibody reaction is then observed (e.g., in the case of a positive result), the subject from whom the sample is derived is likely to be affected with mesothelioma. Whether a result for antibody reaction is positive can be determined in accordance with an Allred Score method (see Allred D C et al., Mod Pathol, 11: 155-168, 1998). In the Allred Score method, for example, a total score is calculated from the following equation: Total score (TS)=Proportion score (PS)+Intensity score (IS) If the total score is 3 or more, then it can be determined that the result for reaction is positive. PS and IS can be determined from the following score tables. Score Tables for Allred Score Method Proportion Score, PS • 0: no staining • 1: a proportion of staining of less than 1% • 2: a proportion of staining of 1% or more and less than 10% • 3: a proportion of staining of 10% or more and less than ⅓ • 4: a proportion of staining of ⅓ or more and less than ⅔ • 5: a proportion of staining of ⅔ or more Intensity score, IS • 0: negative • 1: weak staining • 2: intermediate staining • 3: strong staining\nAMeX-fixed cell precipitates or formalin-fixed tissues were paraffin-embedded to prepare thin sections. Each of the sections was fixed to a microscope slide, and subjected to deparaffinization and dehydration with xylene and ethanol, followed by activation of an antigen under different conditions. Each section was treated with 3% hydrogen peroxide for 5 minutes to deactivate endogenous peroxidase, and then washed with PBS and blocked with 0.5% casein for 10 minutes. After 100 μL of a solution containing a primary antibody was added to each section and treated at room temperature for 2 hours, the section was washed with PBS and allowed to develop color by using a Histofine Simple Stain MAX-PO (Multi) ([…] BIOSCIENCE INC.), Ventana ultraView DAB universal kit (Roche Diagnostics K. K.), or the EnVision+kits. Each section was stained with hematoxylin and then dehydrated, and encapsulated with Malinol (MUTO PURE CHEMICALS CO., LTD.) to observe under a microscope. The conditions for activation of an antigen were as follows: at 98° C. for 40 minutes for calretinin, mesothelin, and the SKM9-2 antigen; and at 95° C. for 64 minutes for cytokeratin 5/6 (CK5/6), podoplanin, and Wilms' tumor gene product 1 (WT-1). The following activation solutions were used: 10 mM Tris buffer (pH 9.0) containing 1 mM ethylenediamine tetraacetate (EDTA) for calretinin, CK5/6, and podoplanin; and 10 mM citrate buffer (pH 6.0) containing 0.1% TWEEN® 20 (polyethylene glycol sorbitan monolaurate, polyoxyethylenesorbitan monolaurate) for WT-1, mesothelin, and the SKM9-2 antigen. The following primary antibodies were used: a rabbit anti-calretinin polyclonal antibody (PAD:DC8) (Life Technologies Japan Ltd., Tokyo, Japan) for calretinin; a mouse anti-cytokeratin 5,6 monoclonal antibody (D5/16B4) ([…] BIOSCIENCE INC.) for CK5/6; a mouse anti-human mesothelin monoclonal antibody (5B2) (Leica Microsystems, Inc., Bannockburn, IL) for mesothelin; a mouse anti-podoplanin monoclonal antibody (D2-40) (Roche Diagnostics K. K.) for podoplanin; and a mouse anti-human WT-1 monoclonal antibody (6F-H2) (Roche Diagnostics K. K.) for WT-1.\nHereinafter, cases that the fraction of cells with scores of 1 or more determined in accordance with the Allred Score method was 10% or more in the cell were determined as positive."}, "[2]": {"system": "formalin-fixed tissue sections of cancers except mesothelioma", "experiment": "Hybridoma screening by immunostaining of formalin-fixed tissue sections", "conditions": "hybridoma culture supernatant"}}}
{"molecule": "B1", "values": [{"measurement": "Staining of well-differentiated papillary mesothelioma (WDPM)", "setting": "[1]; WDPM", "result": "one in one case"}, {"measurement": "Sensitivity (%)", "setting": "[1]; all mesothelioma types", "result": 91.3, "unit": "%"}, {"measurement": "Detection of mesothelioma, Biphasic (positive cases/cases)", "setting": "[1]; biphasic mesothelioma", "result": "12/13"}, {"measurement": "Detection of mesothelioma, Desmoplastic (positive cases/cases)", "setting": "[1]; desmoplastic mesothelioma", "result": "3/4"}, {"measurement": "Staining of mesothelioma, representative images", "setting": "[1]; epithelial mesothelioma and sarcomatoid mesothelioma", "result": "successfully stained"}, {"measurement": "Detection of mesothelioma, Epithelial (positive cases/cases)", "setting": "[1]; epithelial mesothelioma, positive = fraction of cells with Allred score 1 or more is 10% or more", "result": "62/66"}, {"measurement": "Detection of mesothelioma, Sarcomatoid (positive cases/cases)", "setting": "[1]; sarcomatoid mesothelioma", "result": "7/9"}, {"measurement": "Reactivity with formalin-fixed tissue sections of cancers except mesothelioma", "setting": "[2]", "result": "almost non-reactive"}]}
